± gives the uncertainty stated by the source.
Experiment: protein stability index of a GFP-peptide fusion (yeast GPS) (PSI 1-4); higher = more stable; sorted into four equal gates, so the index is relative within each strain
Outline: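 Tiled 17-residue yeast protein peptides were fused downstream of GFP in a plasmid that also expresses Cherry, and the pooled library was carried in yeast. Mid-log cultures in leucine-free medium were sorted into four equal gates by GFP/Cherry fluorescence ratio, and plasmids from each gate were PCR-amplified and Illumina-sequenced, with reads assigned to strains by barcodes. The protein stability index for each peptide was each gate's read frequency times its gate number, summed.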

| Sequence | protein stability index (doa10∆) | protein stability index (san1∆) | protein stability index (ubr1∆) | protein stability index (pdr5∆) |
| --- | --- | --- | --- | --- |
| QNQGGAQAPFDIDDLAF [ROX3] | 3.55 ± 0.13 | 3.4 ± 0.11 | 3.37 ± 0.065 | – |
| CGFWQPAWRVWLNFLRG [PRP8] | 2.52 ± 0.072 | 1.62 ± 0.13 | 2.35 ± 0.062 | 2.87 ± 0.12 |
| YSIEMKPYSGKLLKVCL [ECM29] | 2.62 ± 0.077 | 2.51 ± 0.076 | 2.83 ± 0.069 | 2.33 ± 0.098 |
| KVGYTLPSHIISTSDVT [RPL4A] | 2.49 ± 0.048 | 2.58 ± 0.039 | 2.5 ± 0.035 | 2.69 ± 0.043 |
| KFNKSKAKFTSLAVRSL [YCS4] | 2.09 ± 0.065 | 1.96 ± 0.067 | 1.8 ± 0.039 | 2.01 ± 0.056 |
| FGPIKVELPTKETVEIG [FAS1] | 3.01 ± 0.084 | 3.23 ± 0.067 | 3.02 ± 0.066 | 3.28 ± 0.07 |
| LKKRYDLSYNFNVHEVP [YMR129W/POM152] | 2.78 ± 0.05 | 2.7 ± 0.058 | 2.82 ± 0.042 | 2.6 ± 0.056 |
| TSNASMNTTLGSIGSRK [YAR002W/NUP60] | 3.32 ± 0.1 | 3.37 ± 0.063 | 3.26 ± 0.085 | 3.27 ± 0.11 |
| IRKTPLAQKKAHLAEIQ [RPL3] | 2.19 ± 0.1 | 2.77 ± 0.12 | 1.26 ± 0.05 | 1.39 ± 0.066 |
| LGIKVAELTGDSRLSRK [BRR2] | – | 2.67 ± 0.16 | – | 2.18 ± 0.19 |
| LSATQFTQPALTLMEKA [FAS1] | 2.37 ± 0.073 | 2.7 ± 0.049 | 2.58 ± 0.054 | 2.56 ± 0.058 |
| QKKIQINKEMGELNSKL [SMC3] | – | – | 3.15 ± 0.13 | 3.34 ± 0.21 |
| PANHLQSDFCLSWCPSR [YGL100W/SEH1] | 1.8 ± 0.18 | 2.43 ± 0.16 | 2.4 ± 0.06 | 2.05 ± 0.12 |
| SKSPSEWQDIIHQREQE [CSE2] | 3.33 ± 0.16 | 3.25 ± 0.085 | 3.2 ± 0.14 | 3.31 ± 0.12 |
| SSETDDDHSQVINPQQL [DSN1] | 2.99 ± 0.048 | 2.99 ± 0.044 | 3.08 ± 0.048 | 3.13 ± 0.05 |
| IRKLLEKINRMIIFLKN [CSI1] | 1.81 ± 0.079 | 1.31 ± 0.11 | 1.19 ± 0.041 | 1.5 ± 0.063 |
| TNPSSIFGGAGGVPTTS [YOR098C/NUP1] | 1.72 ± 0.066 | 2.15 ± 0.086 | 1.59 ± 0.053 | 2.36 ± 0.076 |
| VSNPGDNPPPADNGEEY [MED2] | 3.14 ± 0.071 | 3.13 ± 0.074 | 3.29 ± 0.11 | 2.86 ± 0.1 |
| KSKKSWLNRLNNWLFGW [YMR153W/NUP53] | 2.81 ± 0.054 | 2.51 ± 0.053 | 2.94 ± 0.041 | 2.66 ± 0.046 |
| RMRNRALREMRKSDQQD [POP1] | 3.61 ± 0.13 | 3.23 ± 0.11 | 3.13 ± 0.13 | 3.63 ± 0.17 |
| TPYNADFDGDEMNLHVP [RPO31] | 2.83 ± 0.087 | 3.07 ± 0.075 | 3.21 ± 0.062 | 3.35 ± 0.085 |
| NENRNTGAGVDVNTNAN [SNF11] | 3.11 ± 0.062 | 3.15 ± 0.039 | 3.36 ± 0.054 | 3.42 ± 0.06 |
| QNRSLQEHNIQDSNVMP [SNF2] | 3.19 ± 0.057 | 2.92 ± 0.04 | 3.31 ± 0.04 | 3.08 ± 0.053 |
| LEKTSRILNFFDKNTKT [YMR153W/NUP53] | 2.59 ± 0.08 | 2.75 ± 0.089 | 2.7 ± 0.052 | 3.09 ± 0.087 |
| DADEKSSNLYETIIEAD [YJR042W/NUP85] | 2.82 ± 0.067 | 2.88 ± 0.057 | 3.13 ± 0.082 | 2.95 ± 0.061 |
| TTFTKVAAKWNTSLISL [PRP8] | 2.09 ± 0.052 | 2.4 ± 0.082 | 2.06 ± 0.036 | 2.39 ± 0.06 |
| LISNLLFSKNRNEVLES [YCS4] | 1.96 ± 0.062 | 2.97 ± 0.052 | 2.65 ± 0.056 | 2.68 ± 0.06 |

| Sequence | protein stability index (doa10∆) | protein stability index (san1∆) | protein stability index (ubr1∆) | protein stability index (pdr5∆) |
| --- | --- | --- | --- | --- |
| TAQEINFKMLVLLATWN [IRR1] | 1.84 ± 0.039 | 2.14 ± 0.051 | 1.83 ± 0.031 | 2.04 ± 0.047 |
| NDENDDEFYINVDKNLN [RPN14] | 2.96 ± 0.19 | 2.94 ± 0.11 | 3.05 ± 0.12 | 2.72 ± 0.12 |
| REHSLQLFRTNKVQIMI [PRP28] | 1.61 ± 0.063 | 1.61 ± 0.084 | 2.07 ± 0.037 | 1.75 ± 0.065 |
| AIGYPTLPSVGHTLINN [RPP0] | 3.06 ± 0.21 | – | – | 2.65 ± 0.13 |
| LLLLSLFKKITNVNPSK [YML103C/NUP188] | 1.89 ± 0.03 | 2.24 ± 0.038 | 1.93 ± 0.027 | 1.9 ± 0.027 |
| NKVVVNLNDAGLALQLF [RPN2] | 2.28 ± 0.084 | 2.68 ± 0.12 | 1.85 ± 0.091 | 2.19 ± 0.12 |
| DANRNANNIVNIVSDAG [GRR1] | 3.07 ± 0.068 | 2.99 ± 0.041 | 2.97 ± 0.067 | 3.06 ± 0.059 |
| DNLFGETESSVSNNEAN [SWI3] | 3.55 ± 0.16 | – | 2.89 ± 0.083 | 2.92 ± 0.089 |
| IQKQIETIQADLNHVTE [SMC2] | 2.96 ± 0.047 | 2.96 ± 0.037 | 2.87 ± 0.039 | 3.16 ± 0.053 |
| SNSAGTSLFGSSSAQQT [YJL041W/NSP1] | 3.15 ± 0.069 | 3.12 ± 0.073 | 3.17 ± 0.052 | 3.08 ± 0.079 |
| NTRKNMSISLESSKALA [DIS3] | 1.96 ± 0.082 | 1.96 ± 0.13 | 2.08 ± 0.078 | 2.24 ± 0.1 |
| QDKDAIRKQPDDIINND [SIR2] | 2.48 ± 0.089 | 2.82 ± 0.078 | 2.89 ± 0.061 | 2.63 ± 0.049 |
| DKDNAEKTLGKSLSKAI [RPN7] | 2.27 ± 0.12 | – | – | 2.67 ± 0.21 |
| QNNLPPNFFLTLISENW [BRR2] | 2.94 ± 0.073 | 2.91 ± 0.071 | 2.94 ± 0.072 | 3.13 ± 0.069 |
| RDRKLITDKGTVDGRLY [YJL039C/NUP192] | 3.16 ± 0.12 | 3.19 ± 0.071 | 3.17 ± 0.076 | 3.22 ± 0.074 |
| IKEKFDEFIKTHEDLPK [IRR1] | 2.7 ± 0.1 | 2.62 ± 0.065 | 3.01 ± 0.071 | 2.68 ± 0.095 |
| KSVRILKNKAEYLKNCP [RPC40] | 3.13 ± 0.066 | 3.12 ± 0.049 | 3.15 ± 0.046 | 3.19 ± 0.064 |
| KKRLMDIDDELNELETL [SMC2] | 3.05 ± 0.058 | 3 ± 0.034 | 3.37 ± 0.035 | 3.17 ± 0.067 |
| TGKTLLARACAAQTNAT [RPT5] | 2.72 ± 0.13 | 2.9 ± 0.096 | 2.61 ± 0.29 | 2.92 ± 0.089 |
| GAMTPEEIFFKSVRILK [RPC40] | 2.9 ± 0.12 | 2.96 ± 0.14 | 3.22 ± 0.093 | 3.28 ± 0.14 |
| GLLDESPNRLRVRTDDS [YML031W/NDC1] | 1.5 ± 0.098 | 1.67 ± 0.12 | 1.64 ± 0.051 | 1.82 ± 0.15 |
| LNATTAMDLAQMLIQGV [BRR2] | 3.08 ± 0.18 | 2.58 ± 0.094 | 1.55 ± 0.083 | 1.68 ± 0.11 |
| QVILPMSPNHGTFGGDG [FAS2] | 3.12 ± 0.064 | 3.18 ± 0.061 | 3.07 ± 0.048 | 3.1 ± 0.057 |
| QLVPIRLEFDQDRDRFF [SNF5] | 3.14 ± 0.13 | 2.98 ± 0.24 | 3.1 ± 0.078 | 2.98 ± 0.16 |
| FMAFINACAKYGRDDME [ISW2] | 2.77 ± 0.2 | – | – | – |
| NTFQKTVEPVYQMHIKT [FAS1] | 1.68 ± 0.038 | 1.58 ± 0.062 | 1.5 ± 0.059 | 1.78 ± 0.046 |
| VRCVNCSKSIPKDKAIK [RPS26A] | 2.77 ± 0.067 | 2.77 ± 0.063 | 2.82 ± 0.044 | 3 ± 0.071 |
